Measured values published in paper PMC9371698.

Experiments:
[1] = biological target: canine E-cadherin ectodomain K14E mutant (canine); experiment: single-molecule atomic force microscopy; biotinylated canine Ecad on streptavidin on PEG tethers on both AFM tip and coverslip; without 19A11 (−ab); pulling velocity 1 µm/s; pH 7.5, 10 mM Tris-HCl, 100 mM NaCl, 10 mM KCl, 2.5 mM CaCl2
[2] = biological target: canine E-cadherin ectodomain K14E mutant (canine); experiment: single-molecule atomic force microscopy; as −ab, but tip and coverslip incubated with 19A11 Fab and 150 nM free 19A11 Fab in the measurement buffer (+ab); pulling velocity 1 µm/s; pH 7.5, 10 mM Tris-HCl, 100 mM NaCl, 10 mM KCl, 2.5 mM CaCl2

- unbinding force (peak of a single Gaussian), without 19A11 [1]: 41.2 pN
- unbinding force (peak of a single Gaussian), with 150 nM 19A11 [2]: 40.3 pN
Substance: canine E-cadherin ectodomain K14E mutant (domain or fragment)
